{"source": "patent US12649778", "binders": {"B1": {"name": "Antibody 74D3-1 (antibody, V domains shown)", "VH": "QSVEESGGRLVTPGTPLTLTCTVSGIDLSNNAMGWVRQAPGEGLEWIGTIYASGNTYYASWAKGRFAISKTSTTVDLKMTSLTAADTATYFCARLFNIWGPGTLVTVSS", "VL": "ADIVLTQSPASVSSAVGGTVTINCQASQSVYDNKNLSWFQQKPGQPPKQLIYAASTLASGVPSRFKGSGSGTQFTLTISGMQCDDAATYYCGGRDSGNIYDFGGGTEVVVK"}, "B2": {"name": "65D3 chimeric Fab, NNK library L3 mutant S to A (VL S25A) (Fab, V domains shown)", "VH": "QSLEESGGRLVTPGGSLTLTCTVSGFSLSTHDISWVRQAPGKGLEWIGVIARRGSTYYASWAKGRFTISKTSTTVDLKITSPTIEDTATYFCAREEFDFWGQGTLVTVSS", "VL": "AVLTQTASPVSAAVGGTVTISCQSAQSVYNNKELSWFQQKPGQPPKLLISYASTLASGVPSRFKGSGSGTQFTLTISDLECDDAATYYCLGGYASTIDMWAFGGGTEVVVK"}, "B3": {"name": "65D3 chimeric Fab, NNK library L5 mutant S to Y (VL S27Y) (Fab, V domains shown)", "VH": "B2 VH", "VL": "B2 VL with A25S, S27Y"}, "B4": {"name": "65D3 chimeric Fab, NNK library H25 mutant K to R (VH K63R) (Fab, V domains shown)", "VH": "B2 VH with K63R", "VL": "B2 VL with A25S"}, "B5": {"name": "65D3 chimeric Fab, NNK library L8 mutant N to K (VL N30K) (Fab, V domains shown)", "VH": "B2 VH", "VL": "B2 VL with A25S, N30K"}, "B6": {"name": "65D3 chimeric Fab, NNK library H26 mutant G to K (H-G64K) (Fab, V domains shown)", "VH": "B2 VH with G64K", "VL": "B2 VL with A25S"}, "B7": {"name": "65D3 chimeric Fab, NNK library L3 mutant S to T (VL S25T) (Fab, V domains shown)", "VH": "B2 VH", "VL": "B2 VL with A25T"}, "B8": {"name": "65D3 chimeric Fab, NNK library L5 mutant S to T (VL S27T) (Fab, V domains shown)", "VH": "B2 VH", "VL": "B2 VL with A25S, S27T"}, "B9": {"name": "65D3 chimeric Fab, NNK library L2 mutant S to M (VL S24M) (Fab, V domains shown)", "VH": "B2 VH", "VL": "B2 VL with S24M, A25S"}, "B10": {"name": "65D3 chimeric Fab, NNK library L18 mutant L to N (VL L55N) (Fab, V domains shown)", "VH": "B2 VH", "VL": "B2 VL with A25S, L55N"}, "B11": {"name": "65D3 chimeric Fab, NNK library H17 mutant S to W (H-S55W) (Fab, V domains shown)", "VH": "B2 VH with S55W", "VL": "B2 VL with A25S"}, "B12": {"name": "65D3 chimeric Fab, NNK library L5 mutant S to M (VL S27M) (Fab, V domains shown)", "VH": "B2 VH", "VL": "B2 VL with A25S, S27M"}, "B13": {"name": "65D3 chimeric Fab, NNK library L18 mutant L to S (VL L55S) (Fab, V domains shown)", "VH": "B2 VH", "VL": "B2 VL with A25S, L55S"}, "B14": {"name": "65D3 chimeric Fab, NNK library L3 mutant S to R (VL S25R) (Fab, V domains shown)", "VH": "B2 VH", "VL": "B2 VL with A25R"}, "B15": {"name": "65D3 chimeric Fab, NNK library L8 mutant N to H (VL N30H) (Fab, V domains shown)", "VH": "B2 VH", "VL": "B2 VL with A25S, N30H"}, "B16": {"name": "65D3 chimeric Fab, NNK library L20 mutant S to H (VL S57H) (Fab, V domains shown)", "VH": "B2 VH", "VL": "B2 VL with A25S, S57H"}, "B17": {"name": "65D3 chimeric Fab, NNK library L3 mutant S to L (VL S25L) (Fab, V domains shown)", "VH": "B2 VH", "VL": "B2 VL with A25L"}, "B18": {"name": "65D3 chimeric Fab, NNK library L3 mutant S to H (VL S25H) (Fab, V domains shown)", "VH": "B2 VH", "VL": "B2 VL with A25H"}, "B19": {"name": "65D3 chimeric Fab, NNK library L2 mutant S to G (VL S24G) (Fab, V domains shown)", "VH": "B2 VH", "VL": "B2 VL with S24G, A25S"}, "B20": {"name": "65D3 chimeric Fab, NNK library L3 mutant S to K (VL S25K) (Fab, V domains shown)", "VH": "B2 VH", "VL": "B2 VL with A25K"}, "B21": {"name": "65D3 chimeric Fab, NNK library L5 mutant S to K (VL S27K) (Fab, V domains shown)", "VH": "B2 VH", "VL": "B2 VL with A25S, S27K"}, "B22": {"name": "65D3 chimeric Fab, NNK library L5 mutant S to F (VL S27F) (Fab, V domains shown)", "VH": "B2 VH", "VL": "B2 VL with A25S, S27F"}, "B23": {"name": "65D3 chimeric Fab, NNK library L20 mutant S to T (L-S57T) (Fab, V domains shown)", "VH": "B2 VH", "VL": "B2 VL with A25S, S57T"}, "B24": {"name": "65D3 chimeric Fab, NNK library L2 mutant S to T (VL S24T) (Fab, V domains shown)", "VH": "B2 VH", "VL": "B2 VL with S24T, A25S"}, "B25": {"name": "65D3 chimeric Fab, NNK library L5 mutant S to V (VL S27V) (Fab, V domains shown)", "VH": "B2 VH", "VL": "B2 VL with A25S, S27V"}, "B26": {"name": "65D3 chimeric Fab, NNK library L8 mutant N to R (VL N30R) (Fab, V domains shown)", "VH": "B2 VH", "VL": "B2 VL with A25S, N30R"}}, "note": "Changes are numbered by the printed parent chain. Numbers in names are those of the source. Where “and” joins values, the source holds several entries; their conditions need not be identical. Identical values can stand only once.", "data": [{"target": "Peptide 2004 (…) (Mycobacterium tuberculosis)", "test": "not given", "values": [{"binder": "B1", "rank by relative ELISA signal across the dilution series (1 = highest)": 9}]}, {"target": "Peptide 1593 (…) (Mycobacterium tuberculosis)", "test": "ELISA, NNK clone supernatant on coated peptide", "values": [{"binder": "B2", "OD450 nm": "0.972 OD450", "ratio (OD450 to WT OD450)": "1.21 fold of WT"}, {"binder": "B3", "OD450 nm": "1.1 OD450 and 1.12 OD450", "ratio (OD450 to WT OD450)": "1.41 fold of WT and 1.44 fold of WT"}, {"binder": "B4", "OD450 nm": "0.872 OD450", "ratio (OD450 to WT OD450)": "1.4 fold of WT"}, {"binder": "B5", "OD450 nm": "1.04 OD450 and 1.03 OD450", "ratio (OD450 to WT OD450)": "1.37 fold of WT and 1.35 fold of WT"}, {"binder": "B6", "OD450 nm": "1.09 OD450", "ratio (OD450 to WT OD450)": "1.3 fold of WT"}, {"binder": "B7", "OD450 nm": "0.956 OD450", "ratio (OD450 to WT OD450)": "1.19 fold of WT"}, {"binder": "B8", "OD450 nm": "1.11 OD450", "ratio (OD450 to WT OD450)": "1.43 fold of WT"}, {"binder": "B9", "OD450 nm": "1.15 OD450 and 1.09 OD450", "ratio (OD450 to WT OD450)": "1.38 fold of WT and 1.31 fold of WT"}, {"binder": "B10", "OD450 nm": "0.937 OD450", "ratio (OD450 to WT OD450)": "1.26 fold of WT"}, {"binder": "B11", "OD450 nm": "1.28 OD450", "ratio (OD450 to WT OD450)": "2.06 fold of WT"}, {"binder": "B12", "OD450 nm": "1.16 OD450 and 1.14 OD450", "ratio (OD450 to WT OD450)": "1.49 fold of WT and 1.47 fold of WT"}, {"binder": "B13", "OD450 nm": "0.968 OD450", "ratio (OD450 to WT OD450)": "1.3 fold of WT"}, {"binder": "B14", "OD450 nm": "0.963 OD450 and 0.995 OD450 and 1.04 OD450", "ratio (OD450 to WT OD450)": "1.19 fold of WT and 1.23 fold of WT and 1.29 fold of WT"}, {"binder": "B15", "OD450 nm": "1.02 OD450 and 0.957 OD450", "ratio (OD450 to WT OD450)": "1.34 fold of WT and 1.25 fold of WT"}, {"binder": "B16", "OD450 nm": "0.596 OD450", "ratio (OD450 to WT OD450)": "1.25 fold of WT"}, {"binder": "B17", "OD450 nm": "0.954 OD450", "ratio (OD450 to WT OD450)": "1.18 fold of WT"}, {"binder": "B18", "OD450 nm": "0.95 OD450 and 0.97 OD450", "ratio (OD450 to WT OD450)": "1.18 fold of WT and 1.2 fold of WT"}, {"binder": "B19", "OD450 nm": "1.02 OD450 and 1.11 OD450", "ratio (OD450 to WT OD450)": "1.23 fold of WT and 1.33 fold of WT"}, {"binder": "B20", "OD450 nm": "0.982 OD450", "ratio (OD450 to WT OD450)": "1.22 fold of WT"}, {"binder": "B21", "OD450 nm": "1.16 OD450", "ratio (OD450 to WT OD450)": "1.49 fold of WT"}, {"binder": "B22", "OD450 nm": "1.11 OD450", "ratio (OD450 to WT OD450)": "1.43 fold of WT"}, {"binder": "B23", "OD450 nm": "0.977 OD450", "ratio (OD450 to WT OD450)": "2.05 fold of WT"}, {"binder": "B24", "OD450 nm": "1.01 OD450 and 1.07 OD450", "ratio (OD450 to WT OD450)": "1.21 fold of WT and 1.29 fold of WT"}, {"binder": "B25", "OD450 nm": "1.09 OD450", "ratio (OD450 to WT OD450)": "1.41 fold of WT"}]}, {"target": "Peptide 1593 (…) (Mycobacterium tuberculosis)", "test": "ELISA, NNK clone supernatant on coated peptide (22 hits)", "units": {"OD450 nm": "OD450"}, "values": [{"binder": "B2", "OD450 nm": 0.972, "ratio (OD450 to WT OD450)": "1.21 fold of WT"}, {"binder": "B26", "OD450 nm": 0.958, "ratio (OD450 to WT OD450)": "1.26 fold of WT"}, {"binder": "B3", "OD450 nm": 1.12, "ratio (OD450 to WT OD450)": "1.44 fold of WT"}, {"binder": "B4", "OD450 nm": 0.872, "ratio (OD450 to WT OD450)": "1.4 fold of WT"}, {"binder": "B5", "OD450 nm": 1.04, "ratio (OD450 to WT OD450)": "1.37 fold of WT"}, {"binder": "B7", "OD450 nm": 0.956, "ratio (OD450 to WT OD450)": "1.19 fold of WT"}, {"binder": "B8", "OD450 nm": 1.11, "ratio (OD450 to WT OD450)": "1.43 fold of WT"}, {"binder": "B9", "OD450 nm": 1.09, "ratio (OD450 to WT OD450)": "1.31 fold of WT"}, {"binder": "B10", "OD450 nm": 0.937, "ratio (OD450 to WT OD450)": "1.26 fold of WT"}, {"binder": "B12", "OD450 nm": 1.14, "ratio (OD450 to WT OD450)": "1.47 fold of WT"}, {"binder": "B13", "OD450 nm": 0.968, "ratio (OD450 to WT OD450)": "1.3 fold of WT"}, {"binder": "B14", "OD450 nm": 0.963, "ratio (OD450 to WT OD450)": "1.19 fold of WT"}, {"binder": "B15", "OD450 nm": 0.957, "ratio (OD450 to WT OD450)": "1.26 fold of WT"}, {"binder": "B16", "OD450 nm": 0.596, "ratio (OD450 to WT OD450)": "1.25 fold of WT"}, {"binder": "B17", "OD450 nm": 0.954, "ratio (OD450 to WT OD450)": "1.18 fold of WT"}, {"binder": "B18", "OD450 nm": 0.95, "ratio (OD450 to WT OD450)": "1.18 fold of WT"}, {"binder": "B19", "OD450 nm": 1.11, "ratio (OD450 to WT OD450)": "1.33 fold of WT"}, {"binder": "B20", "OD450 nm": 0.982, "ratio (OD450 to WT OD450)": "1.22 fold of WT"}, {"binder": "B21", "OD450 nm": 1.16, "ratio (OD450 to WT OD450)": "1.49 fold of WT"}, {"binder": "B22", "OD450 nm": 1.11, "ratio (OD450 to WT OD450)": "1.43 fold of WT"}, {"binder": "B24", "OD450 nm": 1.07, "ratio (OD450 to WT OD450)": "1.29 fold of WT"}, {"binder": "B25", "OD450 nm": 1.09, "ratio (OD450 to WT OD450)": "1.41 fold of WT"}]}]}
